Assay results reported in patent US20130224187A1 (Alexion, published 2013).

Key:
cynomolgus macaque C5a = biological target: T1, cynomolgus macaque C5a (cynomolgus macaque); experiment: SPR (Biacore); antibody captured by anti-human Fc on CM5 chip, recombinant cynomolgus C5a 0.6-5.9 nM as analyte; 1:1 Langmuir fit
T1 construct: also called recombinant cynomolgus macaque C5a; cynomolgus C5a
T1 chain: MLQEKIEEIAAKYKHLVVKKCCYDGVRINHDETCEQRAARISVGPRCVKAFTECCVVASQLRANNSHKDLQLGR
Description: The surface was regenerated with 20 mM HCl, 0.02% surfactant P20 (Biacore) after each cycle to remove bound antibody and antigen. The data was evaluated using Biacore BlAevaluation software using a 1:1 Langmuir Model Fit (Rmax:Global Fit; R1:Local Fit). These experiments were for screening purposes with a minimal number of analyte concentrations (3 to 4) with 1 duplicate.

mouse C5a = biological target: T2, mouse C5a (mouse, UniProt P06684 683-755); experiment: SPR (Biacore); antibody captured by anti-human Fc on CM5 chip, recombinant mouse C5a 0.6-5.9 nM as analyte; 1:1 Langmuir fit; footnote: only an approximation of the KD
T2 construct: also called recombinant mouse C5a
T2 sequence: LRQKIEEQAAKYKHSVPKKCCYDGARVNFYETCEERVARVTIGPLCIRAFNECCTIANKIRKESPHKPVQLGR
Description: The surface was regenerated with 20 mM HCl, 0.02% P20 after each cycle to remove bound antibody and antigen. The data were evaluated using Biacore BlAevaluation software using a 1:1 Langmuir Model Fit (Rmax:Global Fit; R1:Local Fit).

B1: BNJ383 (antibody, human IgG2, kappa, V domains shown)
VH: QVQLVQSGAEVKKPGASVKVSCKASGYTFTDYSMDWVRQAPGQGLEWMGAIHLNTGYTNYNQKFKGRVTMTRDTSTSTVYMELSSLRSEDTAVYYCARGFYDGYSPMDYWGQGTTVTVSS
VL: DIQMTQSPSSLSASVGDRVTITCRASESVDSYGNSFMHWYQQKPGKAPKLLIYRASNLESGVPSRFSGSGSGTDFTLTISSLQPEDFATYYCQQSNEDPYTFGGGTKVEIKR
notes: Humanized bivalent full length IgG; also called anti-hC5a antibody
For B1, which Kd (cynomolgus macaque C5a) is on record?
The Kd was 3.3 nM.

And the Kd (mouse C5a)?
Its Kd is about 0.379 nM.
